Laboratory results published in article PMC12384205.
pIC50, pKd: −log10 of the molar value.

Target: RGD-binding integrins on HeLa cells (α5β1, αvβ5, αvβ3) (human (endogenous in HeLa))
Assay: resonant waveguide grating (RWG) live-cell competitive adhesion assay; sensor coated with 50% PPR (RGD peptide); HeLa cells (8000 per well) with soluble S1 or BSA in HEPES-HBSS, 90 min; normalised adhesion fitted with a sigmoidal curve; Kd calculated from the IC50 with [RGD] 2.39 µM and Kd^RGD 9.4 µM

“recombinant human coronavirus SARS-CoV-2 Spike Glycoprotein S1 (Active)” was tested, and the pIC50 was 5.85 and the pKd was 5.95.
